Reference: patent publication US20110098217A1 (INDIANA UNIVERSITY RESEARCH AND TECHNOLOGY, published 2011)
Where two headings read alike, the source gives them in different places. Numbered stars: 1 amine (or outer) side, 2 acyl side, 3 side chain; on linkers, the order of the positions; unused ones are H or OH. Square brackets hold non-standard residues; d marks the D form. Ends that are not written are not given here. CSA‑2 = Cys(S-CH2CH2COOH), S-(2-carboxyethyl)-L-cysteine, O=C([C@H](CSCCC(=O)[*:3])N[*:1])[*:2]; CSA‑1 = Cys(S-CH2COOH), S-carboxymethyl-L-cysteine, O=C([C@H](CSCC(=O)[*:3])N[*:1])[*:2]; Abu(4-SO3H) = N[C@@H](CCS(=O)(=O)O)C(=O)O; PhLac = O=C(O)[C@@H](O)Cc1ccccc1; NSG‑1 = not defined here; NSG‑2 = not defined here

Columns and labels:
[1] = target: human glucagon receptor (human) (UniProt P47871); test: cell-based or functional assay
Sequence of human glucagon receptor (human) (P47871 26-477): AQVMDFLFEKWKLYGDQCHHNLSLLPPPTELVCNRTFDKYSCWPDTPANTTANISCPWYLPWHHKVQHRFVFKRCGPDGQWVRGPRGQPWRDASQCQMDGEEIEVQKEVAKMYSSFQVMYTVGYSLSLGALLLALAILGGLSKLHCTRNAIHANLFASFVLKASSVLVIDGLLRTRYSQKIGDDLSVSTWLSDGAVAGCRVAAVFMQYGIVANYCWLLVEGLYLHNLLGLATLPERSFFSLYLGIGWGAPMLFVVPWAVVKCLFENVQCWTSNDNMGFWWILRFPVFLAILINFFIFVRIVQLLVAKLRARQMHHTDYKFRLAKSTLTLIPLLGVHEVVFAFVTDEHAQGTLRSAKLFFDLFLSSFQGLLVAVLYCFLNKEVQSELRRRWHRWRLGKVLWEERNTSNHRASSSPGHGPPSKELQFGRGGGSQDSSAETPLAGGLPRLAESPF

[2] = target: human GLP-1 receptor (human) (UniProt P43220); test: cell-based or functional assay
Sequence of human GLP-1 receptor (human) (P43220 24-463): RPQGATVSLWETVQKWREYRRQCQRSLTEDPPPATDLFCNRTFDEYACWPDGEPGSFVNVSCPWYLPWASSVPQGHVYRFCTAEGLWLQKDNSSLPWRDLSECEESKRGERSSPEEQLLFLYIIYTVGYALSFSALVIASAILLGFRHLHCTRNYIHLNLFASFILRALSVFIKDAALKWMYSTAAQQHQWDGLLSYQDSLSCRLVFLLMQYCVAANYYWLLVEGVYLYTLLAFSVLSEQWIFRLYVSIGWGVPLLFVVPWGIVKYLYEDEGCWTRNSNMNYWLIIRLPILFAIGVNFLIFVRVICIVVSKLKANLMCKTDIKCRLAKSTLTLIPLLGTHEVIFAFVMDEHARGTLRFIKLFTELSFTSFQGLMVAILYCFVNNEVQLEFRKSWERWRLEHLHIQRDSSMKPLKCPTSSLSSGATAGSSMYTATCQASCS

[3] = target: human glucagon receptor (human) (UniProt P47871); test: cell-based or functional assay; remark: listed apart in the source
human glucagon receptor [4] = target: T1, human glucagon receptor (human, UniProt P47871 26-477); test: SPA competition vs 125I-glucagon, receptor membranes
T1 construct: whole, on cells; cAMP assay: transfected HEK293 cells
T1 sequence (P47871 26-477): as the sequence (P47871 26-477) above

human glucagon receptor [5] = target: T1, human glucagon receptor; test: cell-based or functional assay
human glucagon receptor [6] = target: T1, human glucagon receptor; test: SPA competition vs 125I-glucagon, receptor membranes; remark: listed apart in the source
human glucagon receptor [7] = target: T1, human glucagon receptor; test: cell-based or functional assay; remark: listed apart in the source

Molecule: [PLA6, E9, E16K20(Lactam)]G(6-39) (peptide)
- Glucagon antagonism IC50 (inhibit 0.2-0.8 nM glucagon) [1]: 20.5 nM

Molecule: FTSEYSKYLDERRAQDFVQWLMNTGPSSGAPPPS (PLA at position 6; C-terminal amide) [[PLA6, E9, E16]G(6-39)]
- GLP-1 agonism EC50 [2]: 1760 nM
- Glucagon antagonism IC50 (inhibit 0.2-0.8 nM glucagon) [3]: 58.1 nM

B1: [(CSA-2)^9] Glucagon(aa2-29)-NH2 (peptide)
peptide: SQGTFTS[CSA‑2]YSKYLDSRRAQDFVQWLMNT-NH2
modifications: N-terminus assumed
SMILES: CSCC[C@H](NC(=O)[C@H](CC(C)C)NC(=O)[C@H](Cc1c[nH]c2ccccc12)NC(=O)[C@H](CCC(N)=O)NC(=O)[C@@H](NC(=O)[C@H](Cc1ccccc1)NC(=O)[C@H](CC(=O)O)NC(=O)[C@H](CCC(N)=O)NC(=O)[C@H](C)NC(=O)[C@H](CCCNC(=N)N)NC(=O)[C@H](CCCNC(=N)N)NC(=O)[C@H](CO)NC(=O)[C@H](CC(=O)O)NC(=O)[C@H](CC(C)C)NC(=O)[C@H](Cc1ccc(O)cc1)NC(=O)[C@H](CCCCN)NC(=O)[C@H](CO)NC(=O)[C@H](Cc1ccc(O)cc1)NC(=O)[C@H](CSCCC(=O)O)NC(=O)[C@H](CO)NC(=O)[C@@H](NC(=O)[C@H](Cc1ccccc1)NC(=O)[C@@H](NC(=O)CNC(=O)[C@H](CCC(N)=O)NC(=O)[C@@H](N)CO)[C@@H](C)O)[C@@H](C)O)C(C)C)C(=O)N[C@@H](CC(N)=O)C(=O)N[C@H](C(N)=O)[C@@H](C)O
notes: also called peptide no
- IC50 (human glucagon receptor [4]): 13.3 nM

Molecule: SQGTFTSXYSKYLDSRRAQDFVQWLMNT (homoglutamic acid (hGlu) at position 9; C-terminal amide, also called peptide no) [[hGlu^9] Glucagon(aa2-29)-NH2]
- IC50 (human glucagon receptor [4]): 8.1 nM

B2: [desHis^1, hCys^9(SO3-), Phe^25, Leu^27] Glucagon-NH2 (peptide)
peptide: SQGTFTS[Abu(4-SO3H)]YSKYLDSRRAQDFVQFLLNT-NH2
modifications: N-terminus assumed
SMILES: CC(C)C[C@H](NC(=O)[C@H](Cc1ccc(O)cc1)NC(=O)[C@H](CCCCN)NC(=O)[C@H](CO)NC(=O)[C@H](Cc1ccc(O)cc1)NC(=O)[C@H](CCS(=O)(=O)O)NC(=O)[C@H](CO)NC(=O)[C@@H](NC(=O)[C@H](Cc1ccccc1)NC(=O)[C@@H](NC(=O)CNC(=O)[C@H](CCC(N)=O)NC(=O)[C@@H](N)CO)[C@@H](C)O)[C@@H](C)O)C(=O)N[C@@H](CC(=O)O)C(=O)N[C@@H](CO)C(=O)N[C@@H](CCCNC(=N)N)C(=O)N[C@@H](CCCNC(=N)N)C(=O)N[C@@H](C)C(=O)N[C@@H](CCC(N)=O)C(=O)N[C@@H](CC(=O)O)C(=O)N[C@@H](Cc1ccccc1)C(=O)N[C@H](C(=O)N[C@@H](CCC(N)=O)C(=O)N[C@@H](Cc1ccccc1)C(=O)N[C@@H](CC(C)C)C(=O)N[C@@H](CC(C)C)C(=O)N[C@@H](CC(N)=O)C(=O)N[C@H](C(N)=O)[C@@H](C)O)C(C)C
notes: also called Cmpd; 4B
- cAMP Induction EC50 (human glucagon receptor [5]): 430 nM
- IC50 (human glucagon receptor [6]): 13.9 nM

B3: K40-chol G(6-40) (peptide)
peptide: FTSDYSKYLDERRAKDFVQWLMDTGPSSGAPPPSK
modifications: PLA at position 6; lactam bridge Glu16-Lys20; Lys40(COCH2CH2S-Chol) cholesterol conjugate; C-terminal amide
- GLP-1 agonism EC50 [2]: 47 nM
- Glucagon antagonism IC50 (inhibit 0.4 nM glucagon) [3]: 312 nM

B4: [(CSA-1]^9] Glucagon(aa2-29)-NH2 (peptide)
peptide: SQGTFTS[CSA‑1]YSKYLDSRRAQDFVQWLMNT-NH2
modifications: N-terminus assumed
SMILES: CSCC[C@H](NC(=O)[C@H](CC(C)C)NC(=O)[C@H](Cc1c[nH]c2ccccc12)NC(=O)[C@H](CCC(N)=O)NC(=O)[C@@H](NC(=O)[C@H](Cc1ccccc1)NC(=O)[C@H](CC(=O)O)NC(=O)[C@H](CCC(N)=O)NC(=O)[C@H](C)NC(=O)[C@H](CCCNC(=N)N)NC(=O)[C@H](CCCNC(=N)N)NC(=O)[C@H](CO)NC(=O)[C@H](CC(=O)O)NC(=O)[C@H](CC(C)C)NC(=O)[C@H](Cc1ccc(O)cc1)NC(=O)[C@H](CCCCN)NC(=O)[C@H](CO)NC(=O)[C@H](Cc1ccc(O)cc1)NC(=O)[C@H](CSCC(=O)O)NC(=O)[C@H](CO)NC(=O)[C@@H](NC(=O)[C@H](Cc1ccccc1)NC(=O)[C@@H](NC(=O)CNC(=O)[C@H](CCC(N)=O)NC(=O)[C@@H](N)CO)[C@@H](C)O)[C@@H](C)O)C(C)C)C(=O)N[C@@H](CC(N)=O)C(=O)N[C@H](C(N)=O)[C@@H](C)O
notes: also called peptide no
- IC50 (human glucagon receptor [4]): 12.7 nM

B5: [desHis^1, desPhe^6, hCys^9(SO3-), Phe^25, Leu^27] Glucagon-NH2 (peptide)
peptide: SQGTTS[Abu(4-SO3H)]YSKYLDSRRAQDFVQFLLNT-NH2
modifications: N-terminus assumed
SMILES: CC(C)C[C@H](NC(=O)[C@H](Cc1ccc(O)cc1)NC(=O)[C@H](CCCCN)NC(=O)[C@H](CO)NC(=O)[C@H](Cc1ccc(O)cc1)NC(=O)[C@H](CCS(=O)(=O)O)NC(=O)[C@H](CO)NC(=O)[C@@H](NC(=O)[C@@H](NC(=O)CNC(=O)[C@H](CCC(N)=O)NC(=O)[C@@H](N)CO)[C@@H](C)O)[C@@H](C)O)C(=O)N[C@@H](CC(=O)O)C(=O)N[C@@H](CO)C(=O)N[C@@H](CCCNC(=N)N)C(=O)N[C@@H](CCCNC(=N)N)C(=O)N[C@@H](C)C(=O)N[C@@H](CCC(N)=O)C(=O)N[C@@H](CC(=O)O)C(=O)N[C@@H](Cc1ccccc1)C(=O)N[C@H](C(=O)N[C@@H](CCC(N)=O)C(=O)N[C@@H](Cc1ccccc1)C(=O)N[C@@H](CC(C)C)C(=O)N[C@@H](CC(C)C)C(=O)N[C@@H](CC(N)=O)C(=O)N[C@H](C(N)=O)[C@@H](C)O)C(C)C
notes: His1 and Phe6 deleted; also called Cmpd; 5B
- cAMP Induction EC50 (human glucagon receptor [5]): 3210 nM
- cAMP Inhibition IC50 (human glucagon receptor [5]): 9220 nM
- IC50 (human glucagon receptor [6]): 53.3 nM

Molecule: SQGTFTS[NSG‑1]YSKYLDSRRAQDFVQWLMNT-NH2 (reading uncertain, also called peptide no) [[(NSG-1)^9] Glucagon(aa2-29)-NH2]
- IC50 (human glucagon receptor [4]): 983 nM

B6: [PLA^5, E^9]Glucagon(aa5-29)-NH2 (peptide)
peptide: [PhLac]FTSEYSKYLDSRRAQDFVQWLMNT-NH2
modifications: N-terminus assumed
SMILES: CSCC[C@H](NC(=O)[C@H](CC(C)C)NC(=O)[C@H](Cc1c[nH]c2ccccc12)NC(=O)[C@H](CCC(N)=O)NC(=O)[C@@H](NC(=O)[C@H](Cc1ccccc1)NC(=O)[C@H](CC(=O)O)NC(=O)[C@H](CCC(N)=O)NC(=O)[C@H](C)NC(=O)[C@H](CCCNC(=N)N)NC(=O)[C@H](CCCNC(=N)N)NC(=O)[C@H](CO)NC(=O)[C@H](CC(=O)O)NC(=O)[C@H](CC(C)C)NC(=O)[C@H](Cc1ccc(O)cc1)NC(=O)[C@H](CCCCN)NC(=O)[C@H](CO)NC(=O)[C@H](Cc1ccc(O)cc1)NC(=O)[C@H](CCC(=O)O)NC(=O)[C@H](CO)NC(=O)[C@@H](NC(=O)[C@H](Cc1ccccc1)NC(=O)[C@@H](O)Cc1ccccc1)[C@@H](C)O)C(C)C)C(=O)N[C@@H](CC(N)=O)C(=O)N[C@H](C(N)=O)[C@@H](C)O
- IC50 (cAMP, inhibit 0.8 mM Glucagon) (human glucagon receptor [7]): 328 nM

Molecule: SQGTFTS[NSG‑2]YSKYLDSRRAQDFVQWLMNT-NH2 (reading uncertain, also called peptide no) [[(NSG-2)^9] Glucagon(aa2-29)-NH2]
- IC50 (human glucagon receptor [4]): 2350 nM

Molecule: Ac-[PhLac]TSEYSKYLDSRRAQDFVQWLMNT-NH2 [[Ac-PLA^6, E^9]Glucagon(aa6-29)-NH2]
- IC50 (cAMP, inhibit 0.8 mM Glucagon) (human glucagon receptor [7]): 38.1 nM
